Experimental data from PMC6202311, “Substrate Recognition and Autoinhibition in the Central Ribonuclease RNase E” (Molecular Cell, 2018).

Assays:
[1] = target: the molecule itself; assay: crystal structure; RNase E (1-529) D303R, D346R co-crystallised with 5' monophosphorylated MicC-ompD fusion RNA (1:1 molar ratio); 3.0 Å, space group C2; open-state quaternary structure
[2] = target: the molecule itself; assay: crystal structure; RNase E (1-510) D303R, D346R co-crystallised with full-length sRNA RprA; 3.95 Å, space group P6(1); 0.1 M KCl, 0.01 M MgCl2, 0.05 M Tris-HCl pH 8.5, 30% PEG 400, 20°C; tetramer as a dimer of dimers

Row | Protein | binding result [1] | stoichiometry N [2]
1 | RNase E (1–529) D303R, D346R (domain or fragment, Crystallised with a 5' monophosphorylated MicC-ompD fusion RNA; Prepared as in Callaghan et al., 2005; cloned in pET16; source: E. coli BL21(DE3), purified (nickel HiTrap Chelating, optional heparin or butyl Sepharose, gel filtration)) not shown | binds | 
2 | RNase E (1–510) D303R, D346R (domain or fragment, Crystallised with full-length sRNA RprA; also called RNase E (1–511); source: E. coli BL21(DE3), purified (nickel HiTrap Chelating, optional heparin or butyl Sepharose, gel filtration)) not shown |  | 4
